For 4 molecules, co-localization frequency results are on record in PMC8643664.

The labels stand for the following.
B1: FLAG-ORC1 (325–511) (domain or fragment)
chain: SKTIDIREERTLTPISGGQRSSVVPSVILKPENIKKRDAKEAKAQNEATSTPHRIRRKSSVLTMNRIRQQLRFLGNSKSDQEEKEILPAAEISDSSSDEEEASTPPLPRRAPRTVSRNLRSSLKSSLHTLTKVPKKSLKPRTPRCAAPQIRSRSLAAQEPASVLEEARLRLHVSAVPESLPCREQEF
B2: FLAG-ORC1 (244–511) (domain or fragment)
chain: NPQMSQQTSCASLDSPGRIKRKVAFSEITSPSKRSQPDKLQTLSPALKAPEKTRETGLSYTEDDKKASPEHRIILRTRIAASKTIDIREERTLTPISGGQRSSVVPSVILKPENIKKRDAKEAKAQNEATSTPHRIRRKSSVLTMNRIRQQLRFLGNSKSDQEEKEILPAAEISDSSSDEEEASTPPLPRRAPRTVSRNLRSSLKSSLHTLTKVPKKSLKPRTPRCAAPQIRSRSLAAQEPASVLEEARLRLHVSAVPESLPCREQEF
B3: FLAG-ORC1 (2–511) (domain or fragment)
chain: AHYPTRLKTRKTYSWVGRPLLDRKLHYQTYREMCVKTEGCSTEIHIQIGQFVLIEGDDDENPYVAKLLELFEDDSDPPPKKRARVQWFVRFCEVPACKRHLLGRKPGAQEIFWYDYPACDSNINAETIIGLVRVIPLAPKDVVPTNLKNEKTLFVKLSWNEKKFRPLSSELFAELNKPQESAAKCQKPVRAKSKSAESPSWTPAEHVAKRIESRHSASKSRQTPTHPLTPRARKRLELGNLGNPQMSQQTSCASLDSPGRIKRKVAFSEITSPSKRSQPDKLQTLSPALKAPEKTRETGLSYTEDDKKASPEHRIILRTRIAASKTIDIREERTLTPISGGQRSSVVPSVILKPENIKKRDAKEAKAQNEATSTPHRIRRKSSVLTMNRIRQQLRFLGNSKSDQEEKEILPAAEISDSSSDEEEASTPPLPRRAPRTVSRNLRSSLKSSLHTLTKVPKKSLKPRTPRCAAPQIRSRSLAAQEPASVLEEARLRLHVSAVPESLPCREQEF
B4: FLAG-ORC1 (full-length) (natural protein)
chain: MAHYPTRLKTRKTYSWVGRPLLDRKLHYQTYREMCVKTEGCSTEIHIQIGQFVLIEGDDDENPYVAKLLELFEDDSDPPPKKRARVQWFVRFCEVPACKRHLLGRKPGAQEIFWYDYPACDSNINAETIIGLVRVIPLAPKDVVPTNLKNEKTLFVKLSWNEKKFRPLSSELFAELNKPQESAAKCQKPVRAKSKSAESPSWTPAEHVAKRIESRHSASKSRQTPTHPLTPRARKRLELGNLGNPQMSQQTSCASLDSPGRIKRKVAFSEITSPSKRSQPDKLQTLSPALKAPEKTRETGLSYTEDDKKASPEHRIILRTRIAASKTIDIREERTLTPISGGQRSSVVPSVILKPENIKKRDAKEAKAQNEATSTPHRIRRKSSVLTMNRIRQQLRFLGNSKSDQEEKEILPAAEISDSSSDEEEASTPPLPRRAPRTVSRNLRSSLKSSLHTLTKVPKKSLKPRTPRCAAPQIRSRSLAAQEPASVLEEARLRLHVSAVPESLPCREQEFQDIYNFVESKLLDHTGGCMYISGVPGTGKTATVHEVIRCLQQAAQANDVPPFQYIEVNGMKLTEPHQVYVQILQKLTGQKATANHAAELLAKQFCTRGSPQETTVLLVDELDLLWTHKQDIMYNLFDWPTHKEARLVVLAIANTMDLPERIMMNRVSSRLGLTRMCFQPYTYSQLQQILRSRLKHLKAFEDDAIQLVARKVAALSGDARRCLDICRRATEICEFSQQKPDSPGLVTIAHSMEAVDEMFSSSYITAIKNSSVLEQSFLRAILAEFRRSGLEEATFQQIYSQHVALCRMEGLPYPTMSETMAVCSHLGSCRLLLVEPSRNDLLLRVRLNVSQDDVLYALKDE

The assay deals with TRF2 (45–244)-LacI. Kind of assay: lacO-LacI protein tethering assay.
Molecule B1 had a co-localization frequency of 46%.

Consider B2, for which the co-localization frequency amounted to 90%.

The molecule B3 returned a co-localization frequency of 73%.

The molecule B4 had a co-localization frequency of 26%.
